Measurements taken from article doi:10.1101/2021.12.10.472131 (bioRxiv, 2021).

Target: T1, Par-3 PDZ1-APM (residues 309-987) (UniProt O96782 309-987)
T1 sequence (looked up): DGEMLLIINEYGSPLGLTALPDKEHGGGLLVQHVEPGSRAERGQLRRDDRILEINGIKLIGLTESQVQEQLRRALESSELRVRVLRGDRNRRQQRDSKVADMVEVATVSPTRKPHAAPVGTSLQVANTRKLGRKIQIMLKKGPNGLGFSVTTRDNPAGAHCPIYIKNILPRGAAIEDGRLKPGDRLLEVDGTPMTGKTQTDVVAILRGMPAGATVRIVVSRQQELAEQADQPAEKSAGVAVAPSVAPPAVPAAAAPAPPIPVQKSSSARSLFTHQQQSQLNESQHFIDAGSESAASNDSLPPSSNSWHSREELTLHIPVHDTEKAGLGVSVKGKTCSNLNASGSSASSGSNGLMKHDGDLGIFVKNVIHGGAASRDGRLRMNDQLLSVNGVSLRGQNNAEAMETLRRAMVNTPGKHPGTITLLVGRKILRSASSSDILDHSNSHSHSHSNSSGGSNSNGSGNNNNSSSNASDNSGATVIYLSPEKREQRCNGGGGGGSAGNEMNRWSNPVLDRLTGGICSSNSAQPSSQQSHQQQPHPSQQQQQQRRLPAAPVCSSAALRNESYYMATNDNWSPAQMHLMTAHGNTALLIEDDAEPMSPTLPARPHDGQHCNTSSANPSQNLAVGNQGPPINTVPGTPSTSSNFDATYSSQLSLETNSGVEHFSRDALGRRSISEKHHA
Experiment: supernatant depletion assay

- binding result: binds
B1: his aPKC kinase domain-PBM (residues 259-606) (domain or fragment, UniProt A1Z9X0 259-606, looked up)
chain: YSLNDFELIRVIGRGSYAKVLMVELRRTRRIYAMKVIKKALVTDDEDIDWVQTEKHVFETASNHPFLVGLHSCFQTPSRLFFVIEFVRGGDLMYHMQRQRRLPEEHARFYAAEISLALNFLHEKGIIYRDLKLDNVLLDHEGHIKLTDYGMCKEGIRPGDTTSTFCGTPNYIAPEILRGEDYGFSVDWWALGVLLYEMLAGRSPFDLAGASENPDQNTEDYLFQVILEKTIRIPRSLSVRAASVLKGFLNKNPADRLGCHRESAFMDIVSHPFFKNMDWELLERKQVTPPFKPRLDSDRDLANFPPEFTGEAVQLTPDDDHVIDNIDQSEFEGFEYVNPLLMSLEDCV
